Source: US20220195059A1, “Rank Pathway Inhibitors in Combination with CDK Inhibitors” (INSTITUTO DE MEDICINA MOLECULAR JOÃO LOBO ANTUNES, priority 2019, published 2022)

Assays:
MCF-7 RANK OE xenografts = assay: MCF-7^OE orthotopic xenograft growth with exogenous sRANKL; type: in vivo, NSG mice; conditions: human sRANKL 0.5 mg/every 48 h s.c. vs vehicle; eight weeks
Protocol: Nod scid gamma (NSG) mice were inoculated in the 2nd thoracic mammary fat pad with MCF-7 RANK OE GFP+Luc+ (RANK OE) cells (n=3-4/group). Mice were treated with human sRANKL 0.5 mg/every 48 h s.c. or vehicle (PBS). Tumors were imaged by bioluminescence every week post tumor inoculation untill the end of the experience (eight weeks). FIG. 10A is a graph of the total flux (p/s) measured at the end of experiment. FIG. 10B is a graph of tumor weight at the time of sacrifice for tumors derived from MCF-7 OE cells taken from mice treated with (+) or without (−) sRANKL. FIG. 10C is a graph of the Ki67-positive stained cells from tumors derived from MCF-7 OE cells taken from mice treated with (+) or without (−) sRANKL. Data is presented as mean±SEM. p-value was calculated using 2-way ANOVA or unpaired t-test, *p<0.05, **p<0.01, ***p<0.001.
Tumor growth was monitored weekly by luminescence analysis.
To determine whether the decreased proliferation rate was due to RANKL availability, NSG mice were inoculated with one of Parental, RANK OE, or Mix cells, as described above, and treated with human soluble RANKL or vehicle control subcutaneously.

[1] = system: RANKL-driven RANK pathway activation (ERK, AKT phosphorylation); assay: RANKL stimulation and RANKL neutralization, western blot; type: cell-based, human; conditions: 1 μg/ml RANKL; serum starved cells
Protocol: It was also confirmed that OPG-Fc is able to neutralize RANKL. Protein expression was assessed by western blot. Cells were seeded in 6-well plates, serum starved for 24 h, and exposed to 1 μg/ml RANKL for the indicated time points (FIG. 26A). For RANKL neutralization (FIG. 26B), RANKL was previously incubated for 60 min at 37° C. in serum-depleted medium±100 ng/ml OPG-Fc or 2.5 μg/ml MAB626, and proteins analyzed after 60 min. β-Actin was used as loading control and band intensity was quantified using FiJi. […] In the presence of OPG-Fc or the anti-RANKL monoclonal antibody MAB626, RANKL-driven RANK pathway activation was decreased (FIG. 26B).
(§1) For this purpose, 4×10^5 cells were seeded in 6-well plates for 24 h, and serum-starved in low-serum medium (0,1% FBS, 1% Pen/Step) for another 24 h. […] Total protein was quantified using Pierce BCA Protein Assay Kit (ThermoSicentific), according to manufacturer's instructions. […]
(§2) Membranes were blocked for 1 h at room temperature (RT) in 5% Non-Fat Dry Milk (NFDM) in PBS-0.1% Tween (PBST) for β-actin; or in 5% bovine serum albumin (BSA) (Santa Cruz) for other antibodies. […] Proteins were detected using a Novex® ECL HRP chemiluminescent substrate reagent kit (Invitrogen) according to the manufacturer's instructions, and x-ray films (Fujifilm) developed in a Curix 60 processor (AGFA), or the Amersham™ Imager 680 (GE Healthcare Life Sciences).

[2] = system: phosphorylation of IkBα, NFkB, ERK and AKT in MCF-7 OE and T47D OE cells; assay: RANK signalling after sRANKL stimulation of RANK OE cells, western blot; type: cell-based, human; conditions: 1 μg/mL sRANKL
Protocol: FIG. 1C provides data that show the activation of RANK signaling pathway. After 24 h in low-serum medium, MCF-7 and T47D cells, or their RANK-overexpressing counterparts MCF-7^OE and T47D^OE, were stimulated with 1 μg/mL soluble RANK ligand (sRANKL) for 0, 5, 10, 20, 40, or 60 min (top panel) or 0, 5, 10, or 25 min (bottom panel). Cell lysates were western blotted using the antibody specific for the indicated protein (IκBα; NK-κB p65; ERK1/2; AKT), or for a phosphorylated version thereof (p-IκBα (Ser32); p-NK-κB p65 (Ser536); p-ERK1/2; p-AKT). β-Actin was used as loading control.
as §1
as §2, with “Sciences). […]” for “Sciences).”

B1: sRANKL: soluble RANK ligand used as stimulus (protein)
chain: EKAMVDGSWLDLAKRSKLEAQPFAHLTINATDIPSGSHKVSLSSWYHDRGWAKISNMTFSNGKLIVNQDGFYYLYANICFRHHETSGDLATEYLQLMVYVTKTSIKIPSSHTLMKGGSTKYWSGNSEFHFYSINVGGFFKLRSGEEISIEVSNPSLLDPDQDATYFGAFKVRDID
B1 was tested, and the tumor growth (MCF-7 RANK OE xenografts) was “did not affect”, the “phosphorylation of RANK-downstream factors, like ERK and AKT” value [1] was “drives the phosphorylation” and the “RANK pathway activity after stimulation” value [2] was “increased RANK pathway activity”.
